Reference: publication PMC4015666 (Journal of Diabetes Investigation, 2013)

Legend:
[1] = 0.025‐U/kg dose; cited from earlier work
[2] = Hypoglycemia monitoring after insulin lispro injection; format: in vivo, healthy Japanese adult males; conditions: 1.5 or 2.0 U s.c. abdomen, 12 participants, three tests each
[3] = design: species or system healthy Japanese adult males; conditions: in vivo

Substance: insulin lispro
- half‐life [1]: 53 min
- time to the maximum insulin concentration (Tmax) [1]: approximately 37 min
- participants who developed severe hypoglycemia (<50 mg/dL) [2]: None
- Bioequivalence of AUC0–∞ [3]: bioequivalent
- Bioequivalence of Cmax [3]: bioequivalent
- Bioequivalence of Tmax [3]: bioequivalent
